# Measurements published in the supplement of paper PMC7877785.
# ± gives the uncertainty stated by the source.
# Test: self-splicing fitness, log relative to wild type (ln ratio); higher = more splicing; Tetrahymena group I intron in knt gene, E. coli kanamycin selection, DiMSum; sequences stand for … in CUCUCU…GGAGGGAAAAGUUAUCAGGCAUGCACCUGGUAGCUAGUCUUUAAACCAAUAGAUUGCAUCGGUUUAAAAGGCAAGACCGUCAAAUUGCGGGAAAGGGGUCAACAGCCGUUCAGUACCAAGUCUCAGGGGAAACUUUGAGAUGGCCUUGCAAAGGGUAUGGUAAUAAGCUGACGGACAUGGUCCUAACCACGCAGCCAAGUCCUAAGUCAACAGAUCUUCUGUUGAUAUGGAUGCAGUUCACAGACUAAAUGUCGGUCGGGGAAGAUGUAUUCUUCUCAUAAGAUAUAGUCGGACCUCUCCUUAAUGGGAGCUAGCGGAUGAAGUGAUGCAACACUGGAGCCGCUGGGAACUAAUUUGUAUGCGAAAGUAUAUUGAUUAGUUUUGGAGUACUCGUGGUCG
# Procedure, shortened: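 DiMSum derived fitness as the error-weighted combination of fold changes across replicates, kanamycin versus no kanamycin, normalised to wild type. E. coli BL21(DE3) held the library, which randomised all eight P1ex-region intron nucleotides within the knt kanamycin-resistance gene on pET-22b(+). Six replicate transformations grew overnight at 37°C or 30°C on LB agar with or without 25 μg/mL kanamycin, also containing 100 μg/mL carbenicillin, 50 μM IPTG and 0.2% rhamnose, and pooled colonies were amplicon-sequenced on an Illumina HiSeq 2500.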
Sequence,self-splicing fitness (ln) (30 °C),self-splicing fitness (ln) (37 °C)
CAUAAGCAAUAUUACGCAAG,-2.14 ± 0.11,-0.944 ± 0.13
CCACAGCAAUAUUACGUGUC,-3.11 ± 0.15,-2.68 ± 0.16
UCCAAGCAAUAUUACGCUUA,-3.43 ± 0.18,-1.86 ± 0.11
GGCCAGCAAUAUUACGAGGC,-2.66 ± 0.23,-2.94 ± 0.4
CCAUAGCAAUAUUACGCGUA,-3.19 ± 0.4,-2.75 ± 0.41
AUGGAGCAAUAUUACGCGCG,-2.41 ± 0.17,-1.27 ± 0.19
CAUGAGCAAUAUUACGAUCU,-2.9 ± 0.36,-2.37 ± 0.3
AGAAAGCAAUAUUACGCGGU,-3.13 ± 0.17,-1.92 ± 0.21
AGCCAGCAAUAUUACGAAAA,,-1.63 ± 0.24
GGACAGCAAUAUUACGCCAA,-0.506 ± 0.14,-1.24 ± 0.23
CAGUAGCAAUAUUACGAGAC,-3.08 ± 0.24,-1.31 ± 0.28
GAGGAGCAAUAUUACGUGGU,-4.05 ± 0.34,-2.77 ± 0.33
AUACAGCAAUAUUACGUUAC,-3.94 ± 0.25,-2.79 ± 0.27
CCCCAGCAAUAUUACGAACG,-3.44 ± 0.2,-2.19 ± 0.18
UAUUAGCAAUAUUACGUGAG,-1.55 ± 0.094,0.0296 ± 0.13
AGAAAGCAAUAUUACGUUGA,-2.09 ± 0.14,-1.23 ± 0.14
UCUCAGCAAUAUUACGAGAG,-2.76 ± 0.11,-1.46 ± 0.11
UGUGAGCAAUAUUACGUGCU,-3.34 ± 0.29,-3.41 ± 0.33
UCCCAGCAAUAUUACGGCGA,-0.651 ± 0.063,-0.335 ± 0.078

Sequence,self-splicing fitness (ln) (30 °C),self-splicing fitness (ln) (37 °C)
GCAUAGCAAUAUUACGUACG,-1.42 ± 0.076,-1.14 ± 0.09
AAAAAGCAAUAUUACGAAUA,-1.42 ± 0.1,-0.458 ± 0.095
UCCAAGCAAUAUUACGGCUA,-1.98 ± 0.14,-0.476 ± 0.11
CCGAAGCAAUAUUACGCCUC,-1.84 ± 0.28,
UAUGAGCAAUAUUACGCGCG,-2.51 ± 0.31,-1.01 ± 0.27
GGUGAGCAAUAUUACGGUUU,-2.12 ± 0.13,-1.25 ± 0.18
CGAAAGCAAUAUUACGCGAA,-1.82 ± 0.24,-2.02 ± 0.3
GCCUAGCAAUAUUACGACUU,-1.37 ± 0.077,-0.298 ± 0.079
AGGUAGCAAUAUUACGCGGU,-3.312 ± 0.024,-2.14 ± 0.037
CAUUAGCAAUAUUACGUUCU,-2.56 ± 0.15,-2.62 ± 0.16
UUCUAGCAAUAUUACGACUA,-1.83 ± 0.31,-1.19 ± 0.21
GAAGAGCAAUAUUACGAUUG,-2.53 ± 0.29,-2.4 ± 0.39
AGUCAGCAAUAUUACGUGAG,-0.691 ± 0.054,-0.0397 ± 0.086
GCAAAGCAAUAUUACGCUGA,-2.59 ± 0.12,-2.04 ± 0.11
GCUUAGCAAUAUUACGACAG,-2.97 ± 0.3,-1.93 ± 0.47
ACCUAGCAAUAUUACGGCAU,-0.00618 ± 0.076,0.451 ± 0.09
CCUCAGCAAUAUUACGAACG,-0.86 ± 0.062,-0.285 ± 0.096
UGCCAGCAAUAUUACGGGCA,-3.85 ± 0.27,-2.48 ± 0.24
UGCUAGCAAUAUUACGCGUA,-0.838 ± 0.11,-0.531 ± 0.1
